Patent publication US20260209362A1 (VIB VZW, published 2026)

T1: biotinylated mouse recombinant IL-12Rβ2 (produced in-house) (mouse, UniProt P97378 24-637, random biotinylated)
T1 construct: Soluble recombinant protein used for panning, ELISA and BLI; also called mIL-12RB2; mIL12RB2
T1 sequence: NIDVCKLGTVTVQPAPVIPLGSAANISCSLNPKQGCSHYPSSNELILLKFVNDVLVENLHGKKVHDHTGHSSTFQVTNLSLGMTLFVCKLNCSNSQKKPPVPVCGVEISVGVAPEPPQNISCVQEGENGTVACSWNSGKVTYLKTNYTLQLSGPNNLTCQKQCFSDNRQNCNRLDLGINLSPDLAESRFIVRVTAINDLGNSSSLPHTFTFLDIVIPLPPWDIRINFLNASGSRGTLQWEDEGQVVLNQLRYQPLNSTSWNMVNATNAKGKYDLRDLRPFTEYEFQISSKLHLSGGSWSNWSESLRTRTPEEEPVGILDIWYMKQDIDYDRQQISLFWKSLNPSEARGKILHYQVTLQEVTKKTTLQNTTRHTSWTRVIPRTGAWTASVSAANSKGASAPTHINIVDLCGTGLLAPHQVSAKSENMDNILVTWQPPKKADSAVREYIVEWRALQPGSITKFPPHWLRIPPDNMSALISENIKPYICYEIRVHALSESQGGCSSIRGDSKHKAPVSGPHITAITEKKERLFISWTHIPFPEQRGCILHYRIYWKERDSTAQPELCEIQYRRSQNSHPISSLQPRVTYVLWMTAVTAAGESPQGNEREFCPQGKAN

T2: biotinylated human recombinant IL-12Rβ2 (produced in-house) (human, UniProt Q99665 24-622, random biotinylated)
T2 construct: Soluble recombinant protein used for panning, ELISA and BLI; also called hIL-12RB2; hIL12RB2
T2 sequence: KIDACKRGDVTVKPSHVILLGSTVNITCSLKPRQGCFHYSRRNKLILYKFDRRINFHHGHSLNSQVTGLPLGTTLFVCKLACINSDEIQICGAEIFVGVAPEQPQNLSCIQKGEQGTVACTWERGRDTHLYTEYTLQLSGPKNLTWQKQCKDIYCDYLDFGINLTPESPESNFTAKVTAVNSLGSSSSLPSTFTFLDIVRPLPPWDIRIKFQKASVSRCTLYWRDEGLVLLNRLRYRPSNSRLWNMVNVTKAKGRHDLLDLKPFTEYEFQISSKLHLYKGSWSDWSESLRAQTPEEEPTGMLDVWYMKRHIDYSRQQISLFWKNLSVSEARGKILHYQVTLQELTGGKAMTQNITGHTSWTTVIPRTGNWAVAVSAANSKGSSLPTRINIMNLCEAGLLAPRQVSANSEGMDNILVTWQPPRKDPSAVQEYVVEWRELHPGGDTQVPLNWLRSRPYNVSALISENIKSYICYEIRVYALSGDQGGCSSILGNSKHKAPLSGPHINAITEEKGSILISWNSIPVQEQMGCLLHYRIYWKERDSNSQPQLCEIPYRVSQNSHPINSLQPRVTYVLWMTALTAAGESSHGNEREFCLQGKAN

T3: human IL-12Rβ2 expressed on cells (human, UniProt Q99665 24-862)
T3 construct: the cell lines are described by plasmid or cDNA number only; also called hIL-12RB2; HEK293T transiently transfected with human IL-12Rβ2
T3 sequence: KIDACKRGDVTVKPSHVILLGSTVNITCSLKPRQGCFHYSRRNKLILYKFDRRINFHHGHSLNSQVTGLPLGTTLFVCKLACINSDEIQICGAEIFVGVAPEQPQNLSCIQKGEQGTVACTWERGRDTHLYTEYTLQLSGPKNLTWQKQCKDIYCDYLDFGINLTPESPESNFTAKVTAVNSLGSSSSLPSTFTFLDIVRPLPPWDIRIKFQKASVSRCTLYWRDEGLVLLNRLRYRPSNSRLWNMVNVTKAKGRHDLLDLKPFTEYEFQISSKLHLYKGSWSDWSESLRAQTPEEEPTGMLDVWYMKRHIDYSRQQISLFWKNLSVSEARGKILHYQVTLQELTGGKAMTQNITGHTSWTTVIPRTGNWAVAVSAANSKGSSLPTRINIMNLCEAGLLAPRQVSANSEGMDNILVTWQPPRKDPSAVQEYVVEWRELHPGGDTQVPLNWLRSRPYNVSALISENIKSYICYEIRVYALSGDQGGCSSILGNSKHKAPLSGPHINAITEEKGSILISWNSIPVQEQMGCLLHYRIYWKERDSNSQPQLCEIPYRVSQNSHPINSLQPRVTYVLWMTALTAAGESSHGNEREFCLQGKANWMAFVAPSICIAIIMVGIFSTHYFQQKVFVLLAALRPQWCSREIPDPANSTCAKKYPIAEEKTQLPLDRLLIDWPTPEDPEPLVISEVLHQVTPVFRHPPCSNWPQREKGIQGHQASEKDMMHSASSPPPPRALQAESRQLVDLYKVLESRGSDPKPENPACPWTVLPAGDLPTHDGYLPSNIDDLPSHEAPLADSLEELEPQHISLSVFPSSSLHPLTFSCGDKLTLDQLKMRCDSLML

T4: mouse IL-12Rβ2 expressed on cells (mouse, UniProt P97378 24-874)
T4 construct: the cell lines are described by plasmid or cDNA number only; also called mIL-12RB2; HEK293T transiently transfected with mouse IL-12Rβ2
T4 sequence: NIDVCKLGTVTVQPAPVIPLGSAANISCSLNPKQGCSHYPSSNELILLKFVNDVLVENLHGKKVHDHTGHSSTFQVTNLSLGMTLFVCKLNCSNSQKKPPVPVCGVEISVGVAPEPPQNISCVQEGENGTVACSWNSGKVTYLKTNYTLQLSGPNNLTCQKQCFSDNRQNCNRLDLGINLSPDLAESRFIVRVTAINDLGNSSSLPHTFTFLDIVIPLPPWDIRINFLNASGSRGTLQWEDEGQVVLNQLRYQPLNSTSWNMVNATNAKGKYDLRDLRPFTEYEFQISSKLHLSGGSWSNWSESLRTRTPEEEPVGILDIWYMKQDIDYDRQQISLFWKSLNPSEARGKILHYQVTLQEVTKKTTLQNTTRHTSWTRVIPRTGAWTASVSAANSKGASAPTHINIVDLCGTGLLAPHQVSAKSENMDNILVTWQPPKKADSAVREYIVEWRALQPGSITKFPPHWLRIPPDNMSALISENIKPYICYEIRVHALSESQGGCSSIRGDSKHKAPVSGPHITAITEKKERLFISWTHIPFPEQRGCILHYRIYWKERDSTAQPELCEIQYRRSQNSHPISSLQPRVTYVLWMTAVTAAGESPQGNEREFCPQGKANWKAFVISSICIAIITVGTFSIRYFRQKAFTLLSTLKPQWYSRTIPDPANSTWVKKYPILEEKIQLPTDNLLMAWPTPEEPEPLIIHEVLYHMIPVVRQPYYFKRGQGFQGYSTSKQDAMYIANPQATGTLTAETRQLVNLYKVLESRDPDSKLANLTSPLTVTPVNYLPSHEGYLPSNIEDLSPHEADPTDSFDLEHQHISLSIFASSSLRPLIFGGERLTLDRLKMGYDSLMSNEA

T5: biotinylated recombinant human IL-12Rβ2 (human, UniProt Q99665 24-622, random biotinylated)
T5 construct: Recombinant protein produced in-house; also called hIL-12RB2; human IL-12RB2
T5 sequence: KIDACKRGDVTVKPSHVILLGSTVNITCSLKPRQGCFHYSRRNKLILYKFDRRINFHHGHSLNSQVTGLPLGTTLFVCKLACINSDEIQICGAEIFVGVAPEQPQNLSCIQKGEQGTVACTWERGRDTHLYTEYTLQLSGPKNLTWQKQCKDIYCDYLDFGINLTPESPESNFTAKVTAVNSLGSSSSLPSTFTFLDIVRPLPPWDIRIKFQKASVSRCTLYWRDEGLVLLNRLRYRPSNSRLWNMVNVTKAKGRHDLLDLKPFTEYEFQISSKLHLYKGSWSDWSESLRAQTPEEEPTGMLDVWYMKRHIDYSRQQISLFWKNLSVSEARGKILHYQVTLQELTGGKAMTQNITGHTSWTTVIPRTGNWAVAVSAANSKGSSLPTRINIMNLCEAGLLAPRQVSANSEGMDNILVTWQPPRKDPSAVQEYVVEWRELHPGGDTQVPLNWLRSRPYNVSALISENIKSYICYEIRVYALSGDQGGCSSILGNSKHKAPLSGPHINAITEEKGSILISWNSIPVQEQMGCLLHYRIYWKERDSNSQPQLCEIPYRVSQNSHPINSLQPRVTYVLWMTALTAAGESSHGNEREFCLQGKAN

T6: biotinylated recombinant mouse IL-12Rβ2 (mouse, UniProt P97378 24-637, random biotinylated)
T6 construct: Recombinant protein produced in-house; also called mIL-12RB2; mouse IL-12RB2
T6 sequence: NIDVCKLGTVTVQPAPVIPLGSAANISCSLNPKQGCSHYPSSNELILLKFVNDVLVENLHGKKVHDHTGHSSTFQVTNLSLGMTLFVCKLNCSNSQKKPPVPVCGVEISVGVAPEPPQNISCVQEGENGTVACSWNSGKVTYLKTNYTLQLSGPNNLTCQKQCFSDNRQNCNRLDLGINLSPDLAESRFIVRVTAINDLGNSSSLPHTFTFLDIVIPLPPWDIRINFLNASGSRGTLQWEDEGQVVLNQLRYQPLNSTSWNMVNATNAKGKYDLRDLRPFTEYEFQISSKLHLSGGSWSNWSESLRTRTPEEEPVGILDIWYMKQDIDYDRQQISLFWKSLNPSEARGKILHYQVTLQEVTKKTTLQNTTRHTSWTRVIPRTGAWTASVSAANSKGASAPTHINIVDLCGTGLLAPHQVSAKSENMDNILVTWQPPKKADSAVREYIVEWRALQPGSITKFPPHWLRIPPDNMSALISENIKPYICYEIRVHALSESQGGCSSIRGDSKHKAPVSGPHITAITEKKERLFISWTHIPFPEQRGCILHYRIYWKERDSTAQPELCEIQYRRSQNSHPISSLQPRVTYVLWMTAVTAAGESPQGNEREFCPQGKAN


Assays:
[1] = molecular target: T1, biotinylated mouse recombinant IL-12Rβ2 …; assay: BLI (Octet Red), periplasmic extract on biotinylated mouse IL-12Rβ2 on streptavidin tips
[2] = molecular target: T2, biotinylated human recombinant IL-12Rβ2 …; assay: ELISA, periplasmic extract on biotinylated human IL-12Rβ2; signal over streptavidin control well
[3] = molecular target: T2, biotinylated human recombinant IL-12Rβ2 …; assay: BLI (Octet Red), periplasmic extract on biotinylated human IL-12Rβ2 on streptavidin tips, 1:1 model
[4] = molecular target: T1, biotinylated mouse recombinant IL-12Rβ2 …; assay: BLI (Octet Red), periplasmic extract on biotinylated mouse IL-12Rβ2 on streptavidin tips, 1:1 model
[5] = molecular target: T1, biotinylated mouse recombinant IL-12Rβ2 …; assay: ELISA, periplasmic extract on biotinylated mouse IL-12Rβ2; signal over streptavidin control well
[6] = molecular target: T2, biotinylated human recombinant IL-12Rβ2 …; assay: BLI (Octet Red), periplasmic extract on biotinylated human IL-12Rβ2 on streptavidin tips
[7] = molecular target: T3, human IL-12Rβ2 expressed on cells; assay: flow cytometry, periplasmic extract VHH-HA on HEK293T cells transiently expressing human IL-12Rβ2
[8] = molecular target: T4, mouse IL-12Rβ2 expressed on cells; assay: flow cytometry, periplasmic extract VHH-HA on HEK293T cells transiently expressing mouse IL-12Rβ2
[9] = molecular target: T5, biotinylated recombinant human IL-12Rβ2; assay: ELISA, P.E., biotinylated antigen
[10] = molecular target: T6, biotinylated recombinant mouse IL-12Rβ2; assay: ELISA, P.E., biotinylated antigen
[11] = molecular target: T5, biotinylated recombinant human IL-12Rβ2; assay: BLI, P.E., off-rate ranking
[12] = molecular target: T6, biotinylated recombinant mouse IL-12Rβ2; assay: BLI, P.E., off-rate ranking

Row | Response [1] | hIL12RB2/control (ELISA) [2] [ratio] | koff [3] [s⁻¹] | koff [4] [s⁻¹] | mIL12RB2/control (ELISA) [5] [ratio] | Response [6] | % cells bound [7] [%] | dMFI [7] | % cells bound [8] [%] | dMFI [8] | ELISA hIL-12RB2/control [9] | ELISA mIL-12RB2/control [10] | Response [11] | koff [11] [s⁻¹] | Response [12] | koff [12] [s⁻¹] | Binder
1 | 0.944 | 6.9 | 0.00605 | 0.00605 | 26.3 | 1.45 | 19.5 | 297 | 10.4 | 257 | – | – | – | – | – | – | anti-IL-12Rβ2 VHH clone 3CRHM73 (clone ID 21060) (VHH, Tested as periplasmic extract; not shown: C-terminal HA tag) VHH: QVQLQESGGGLVQAGGSLSLSCAASGSAFRLNFMGWYRQAPGKQRELVAAINSGGTEIYHDSVKGRFTISRDNADSTVWLQMNSLKPDDTAVYYCAADRGISWSKLAGGMDYWGKGTQVTVSS
2 | 1.03 | 3.04 | 0.00519 | 0.00462 | 38.8 | 1.4 | 37.6 | 684 | 7.51 | 194 | – | – | – | – | – | – | anti-IL-12Rβ2 VHH clone 3CAHM11 (clone ID 21050) (VHH, Tested as periplasmic extract; not shown: C-terminal HA tag) VHH: QVQLQESGGGLVQAGGSLRLSCAASGRTFNNYAMAWFRQAPGKEREFIAAITRSDTTLYIDSVKGRFTISRDNAKNTVALQMNSLKPEDTAVYYCAAGMPYSYSDYPRDSKYDYWGRGTQVTVSS
3 | – | – | – | – | – | – | – | – | – | – | 3.04 | 38.8 | 1.4 | 0.00519 | 1.03 | 0.00462 | anti-IL-12Rβ2 VHH clone 3CAHM11 (clone ID 21050) (VHH, not shown: small tags and cut ends, periplasmic extract) VHH: QVQLQESGGGLVQAGGSLRLSCAASGRTFNNYAMAWFRQAPGKEREFIAAITRSDTTLYIDSVKGRFTISRDNAKNTVALQMNSLKPEDTAVYYCAAGMPYSYSDYPRDSKYDYWGRGTQVTVSS
